Each block holds one binder with its values, some of them ahead of it.
What was measured:
Assay in all cases: two-hybrid library CCmax;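 also: natural log of median RNA to DNA barcode read ratio; higher means stronger binding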
Conditions in all cases: mean of both orientations
[1] = molecular target: T1, Core_NNNI-es_KKEK
T1 chain: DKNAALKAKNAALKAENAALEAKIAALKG

[2] = molecular target: T2, Core_INII-es_KKEK
T2 chain: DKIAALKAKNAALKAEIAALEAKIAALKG

[3] = molecular target: T3, Core_NIII-es_KKKE
T3 chain: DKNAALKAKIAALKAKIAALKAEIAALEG

interaction score [1]: 2.2
Binder: DENAALEAENAALEAKNAALKAEIAALEG [Core_NNNI-es_EEKE]

interaction score [2]: 2.11
Binder: DEIAALEAENAALEAKIAALKAEIAALEG [Core_INII-es_EEKE]

interaction score [3]: 2.14
Binder: DENAALEAEIAALEAEIAALEAKIAALKG [Core_NIII-es_EEEK]
